How the values were obtained:
murine NRP1 [1] = biological target: T1, murine NRP1 (murine, UniProt P97333 22-641); test: SPR (BIAcore-3000), IgG immobilized, NRP1 injected, 25 C
T1 construct: range 1-641; Recombinant soluble protein; also called mNRP1; murine neuropilin-1
Method: (§1) Association rates (kₒₙ) and dissociation rates (koff) were calculated using a simple one-to-one Langmuir binding model (BIAcore Evaluation Software version 3.2). The equilibrium dissociation constant (Kd) was calculated as the ratio koff/kₒₙ.
(§2) (See Materials and Methods).

human NRP1 [2] = biological target: T2, human NRP1 (human, UniProt O14786 22-641); test: as above
T2 construct: range 1-641; Recombinant soluble protein; also called hNRP1; human neuropilin-1
Method: as §1, §2

murine NRP1 [3] = biological target: T1, murine NRP1; test: competitive phage ELISA
human NRP1 [4] = biological target: T2, human NRP1; test: competitive phage ELISA
human NRP2 [5] = biological target: T3, human NRP2 (human, UniProt O60462 23-864, limits assumed); test: ELISA, antigen-coated wells (2 µg/ml), IgG at 10 µg/ml, detected with anti-human IgG HRP, OD450nm
T3 construct: Coated on wells in ELISA and injected in SPR; construct not described; also called hNRP2
T3 sequence (O60462 23-864 limits assumed): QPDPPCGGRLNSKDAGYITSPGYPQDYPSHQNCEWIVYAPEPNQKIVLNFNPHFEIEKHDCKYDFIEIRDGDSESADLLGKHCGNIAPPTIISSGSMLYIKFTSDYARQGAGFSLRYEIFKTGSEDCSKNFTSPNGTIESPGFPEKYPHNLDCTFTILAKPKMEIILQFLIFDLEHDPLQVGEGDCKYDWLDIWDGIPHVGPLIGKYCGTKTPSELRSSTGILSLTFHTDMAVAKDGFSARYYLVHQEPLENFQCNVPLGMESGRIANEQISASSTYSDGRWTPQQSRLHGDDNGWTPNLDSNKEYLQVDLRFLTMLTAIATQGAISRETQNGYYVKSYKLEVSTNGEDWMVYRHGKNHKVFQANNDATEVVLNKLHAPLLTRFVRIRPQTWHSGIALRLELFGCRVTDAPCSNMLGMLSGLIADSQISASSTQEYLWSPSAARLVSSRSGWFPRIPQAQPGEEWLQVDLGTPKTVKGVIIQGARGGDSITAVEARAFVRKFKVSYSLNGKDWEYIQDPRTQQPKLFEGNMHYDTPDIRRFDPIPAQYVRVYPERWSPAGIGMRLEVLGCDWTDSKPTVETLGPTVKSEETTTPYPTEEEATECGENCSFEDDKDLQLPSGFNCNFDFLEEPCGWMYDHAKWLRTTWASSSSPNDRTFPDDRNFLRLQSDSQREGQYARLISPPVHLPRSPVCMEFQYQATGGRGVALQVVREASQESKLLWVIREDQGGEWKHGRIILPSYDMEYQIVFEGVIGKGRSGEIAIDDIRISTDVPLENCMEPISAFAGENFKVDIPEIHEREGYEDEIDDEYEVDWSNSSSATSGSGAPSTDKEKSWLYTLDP

ErbB2-ECD = biological target: T4, ErbB2-ECD (UniProt P04626 23-652, limits assumed); test: as above
T4 construct: extracellular domain; Specificity control antigen

murine NRP2 [6] = biological target: T5, murine NRP2 (murine, UniProt O35375 23-864, limits assumed); test: as above
T5 construct: Coated on wells in ELISA and injected in SPR; construct not described; In the Sema3F collapse assay it is the endogenous NRP2 of mouse E17 hippocampal neurons; also called mNRP2
T5 sequence (O35375 23-864 limits assumed): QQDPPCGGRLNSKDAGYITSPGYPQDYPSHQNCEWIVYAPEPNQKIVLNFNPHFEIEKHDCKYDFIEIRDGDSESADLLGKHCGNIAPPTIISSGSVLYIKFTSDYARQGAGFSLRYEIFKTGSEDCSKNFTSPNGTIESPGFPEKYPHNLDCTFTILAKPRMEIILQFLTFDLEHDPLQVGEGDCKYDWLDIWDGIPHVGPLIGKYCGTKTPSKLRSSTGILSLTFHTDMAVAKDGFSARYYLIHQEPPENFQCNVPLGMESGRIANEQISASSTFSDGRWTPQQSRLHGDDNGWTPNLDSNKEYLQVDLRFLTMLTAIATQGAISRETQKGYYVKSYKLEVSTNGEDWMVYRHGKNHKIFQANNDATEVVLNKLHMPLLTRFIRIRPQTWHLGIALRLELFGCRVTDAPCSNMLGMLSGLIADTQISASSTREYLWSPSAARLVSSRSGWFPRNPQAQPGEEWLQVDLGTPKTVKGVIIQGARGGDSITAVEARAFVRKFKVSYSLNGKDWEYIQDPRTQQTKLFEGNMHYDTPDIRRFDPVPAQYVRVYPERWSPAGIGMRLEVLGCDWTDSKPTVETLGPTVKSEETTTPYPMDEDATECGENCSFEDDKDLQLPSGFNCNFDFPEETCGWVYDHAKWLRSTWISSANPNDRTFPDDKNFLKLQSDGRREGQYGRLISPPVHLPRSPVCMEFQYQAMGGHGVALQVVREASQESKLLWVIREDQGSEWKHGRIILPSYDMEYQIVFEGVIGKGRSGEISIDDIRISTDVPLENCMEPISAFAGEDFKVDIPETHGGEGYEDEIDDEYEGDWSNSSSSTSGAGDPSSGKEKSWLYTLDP

BSA = biological target: T6, BSA (UniProt P02769 25-607); test: as above
T6 construct: Specificity control antigen
T6 sequence (P02769 25-607 limits assumed): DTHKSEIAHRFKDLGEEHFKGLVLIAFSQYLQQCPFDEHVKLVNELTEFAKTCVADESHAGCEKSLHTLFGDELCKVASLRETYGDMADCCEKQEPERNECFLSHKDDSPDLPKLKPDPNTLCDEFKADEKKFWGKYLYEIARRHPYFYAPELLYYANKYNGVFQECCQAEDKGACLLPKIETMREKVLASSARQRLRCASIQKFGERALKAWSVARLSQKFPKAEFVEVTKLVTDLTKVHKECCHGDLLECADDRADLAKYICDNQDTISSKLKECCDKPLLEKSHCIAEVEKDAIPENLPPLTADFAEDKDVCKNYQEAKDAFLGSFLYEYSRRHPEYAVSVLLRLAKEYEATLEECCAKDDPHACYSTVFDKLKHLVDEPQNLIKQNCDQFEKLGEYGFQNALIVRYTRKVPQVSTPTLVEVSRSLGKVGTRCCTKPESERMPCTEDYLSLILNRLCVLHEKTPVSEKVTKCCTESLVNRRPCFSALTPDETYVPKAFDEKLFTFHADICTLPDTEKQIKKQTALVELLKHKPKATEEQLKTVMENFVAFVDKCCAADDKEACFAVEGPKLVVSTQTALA

murine NRP1 [7] = biological target: T1, murine NRP1; test: competitive phage ELISA, phage-displayed Fab'2, antigen in solution vs immobilized antigen
human NRP1 [8] = biological target: T2, human NRP1; test: as above
human NRP2 [9] = biological target: T3, human NRP2; test: BIAcore SPR, IgG immobilized on the chip, antigen injected at 500 nM (printed '500nm')
Method: as §1

murine NRP2 [10] = biological target: T5, murine NRP2; test: as above
Method: as §1

T1 sequence (P97333 22-641 limits assumed, form in doubt): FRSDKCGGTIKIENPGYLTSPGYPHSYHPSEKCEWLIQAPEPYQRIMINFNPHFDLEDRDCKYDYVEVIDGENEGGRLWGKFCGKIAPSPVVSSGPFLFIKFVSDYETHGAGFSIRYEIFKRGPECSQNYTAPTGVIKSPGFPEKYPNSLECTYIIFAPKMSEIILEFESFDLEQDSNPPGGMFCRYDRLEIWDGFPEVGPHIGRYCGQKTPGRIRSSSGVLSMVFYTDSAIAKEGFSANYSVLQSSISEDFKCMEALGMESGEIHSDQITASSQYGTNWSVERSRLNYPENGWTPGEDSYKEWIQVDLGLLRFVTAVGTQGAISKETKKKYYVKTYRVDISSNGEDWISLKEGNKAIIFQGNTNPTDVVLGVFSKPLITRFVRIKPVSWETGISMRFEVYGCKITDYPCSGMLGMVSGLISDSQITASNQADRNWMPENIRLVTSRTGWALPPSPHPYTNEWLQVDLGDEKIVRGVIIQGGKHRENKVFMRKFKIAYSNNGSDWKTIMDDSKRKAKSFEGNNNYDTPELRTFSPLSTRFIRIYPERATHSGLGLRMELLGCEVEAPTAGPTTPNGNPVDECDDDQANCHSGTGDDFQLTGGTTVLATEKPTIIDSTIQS

Molecule | koff (murine NRP1 [1]) [s⁻¹] | kon (murine NRP1 [1]) [M⁻¹ s⁻¹] | koff (human NRP1 [2]) [s⁻¹] | kon (human NRP1 [2]) [M⁻¹ s⁻¹] | IC50 (murine NRP1 [3]) [nM] | IC50 (human NRP1 [4]) [nM] | binding result (human NRP2 [5]) | binding result (ErbB2-ECD) | binding result (murine NRP2 [6]) | binding result (BSA) | Kd (murine NRP1 [1]) [nM] | Kd (human NRP1 [2]) [nM] | IC50 (murine NRP1 [7]) [nM] | IC50 (human NRP1 [8]) [nM] | binding result (human NRP2 [9]) | binding result (murine NRP2 [10])
YW107.4 (antibody) | 0.0015 | 140000 | 0.0011 | 220000 |  |  |  |  |  |  |  |  |  |  |  | 
YW64.3 (antibody, human IgG1, V domains shown, full length human IgG1 (CHO) in ELISA, SPR and FACS; also called anti-NRP1^A; anti-NRP^A) VH: EVQLVESGGGLVQPGGSLRLSCAASGFSFSSEPISWVRQAPGKGLEWVSSITGKNGYTYYADSVKGRFTISADTSKNTAYLQMNSLRAEDTAVYYCARWGKKVYGMDVWGQGTLVTVSS VL: DIQMTQSPSSLSASVGDRVTITCRASQSISSYLAWYQQKPGKAPKLLIYGASSRASGVPSRFSGSGSGTDFTLTISSLQPEDFATYYCQQYMSVPITFGQGTKVEIKR | 0.00045 | 60000 | 0.00012 | 130000 | < 70 | < 70 | no binding (tested: 10 µg/ml) | no binding (tested: 10 µg/ml) | no binding (tested: 10 µg/ml) | no binding (tested: 10 µg/ml) | 7.8 | 0.9 | 3.4 | 0.48 |  | 
YW107.4.87 (antibody, V domains shown, Monovalent Fab on phage in the phage ELISA; also called anti-NRP1^B; anti-NRP^B) VH: EVQLVESGGGLVQPGGSLRLSCAASGFTFSSYAMSWVRQAPGKGLEWVSQISPAGGYTNYADSVKGRFTISADTSKNTAYLQMNSLRAEDTAVYYCARELPYYRMSKVMDVWGQGTLVTVSS VL: DIQMTQSPSSLSASVGDRVTITCRASQYFSSYLAWYQQKPGKAPKLLIYGASSRASGVPSRFSGSGSGTDFTLTISSLQPEDFATYYCQQYLGSPPTFGQGTKVEIKR |  |  |  |  |  |  |  |  |  |  |  |  |  |  | no binding (tested: 500 nM) | no binding (tested: 500 nM)

Source: US20160304613A1 (Genentech, published 2016)
